Assay [1] concerns the target integrins (on human umbilical vein endothelial cells, HUVEC) (human). Put plainly: cell-based or functional assay.
For assay [2] the target is unchanged. Put plainly: cell-based or functional assay. This is another data set of the same source.

Like-named read-outs stand apart in the source and are kept apart here. Square brackets hold non-standard residues; d marks the D form. Ends that are not written are not given here. Cya = N[C@@H](CS(=O)(=O)O)C(=O)O

In assay [1], “Cyclic RGD (RGD-based peptide; N-methylated cyclic-RGDf-N(Me)V; Cilengitide)” returned an inhibition of HUVEC wound healing (scratch assay on fibronectin coated surface; peptide 1 mM) after 24 hours of 45% and an inhibition of cell adhesion in a model of wound healing using HUVEC, 12 hours of 40%.

In assay [2], GRG[Cya]TP-OH [Glycinyl-Arginyl-Glycinyl-Cysteic-Threonyl-Proline-COOH (GRG Cysteic Acid TP)] returned an inhibition of HUVEC wound healing (scratch assay on fibronectin coated surface; peptide 10 mM) after 24 hours of 70% and an inhibition of cell adhesion in a model of wound healing using HUVEC, 12 hours of 74%.

The record behind these values is US20190309018A1.
